# Data published in the nanobody polyreactivity screen of Harvey et al. (2022).
# Assay: yeast display, Sf9 membrane polyspecificity reagent, FACS + sequencing; frameworks hold sequencing errors
# Method in brief: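 Galactose-induced (36–48 hours) yeast carrying a synthetic nanobody display library were exposed to 10% biotinylated, detergent-solubilized Sf9 membrane reagent at 4 °C for 1 hour. FACS followed streptavidin microbead enrichment, using low and high (top ~1%) gates for expression (anti-HA) and reagent binding (streptavidin). Colony PCR, MiSeq 2 × 250 sequencing and CDR-length filtering followed. Labels for polyreactivity reflect the gate of origin.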
row,Sequence,polyreactivity (PSR sort gate)
1,QVQHVESGGGLVQAGGSLRLSCAASGRIFGPYAMGWYRQAPGKEREFVAVITYSSGSTYYADSVKWRFTISRDNAKNTVYLQMNSLKPEDTAVYYCAARLIRSYYYGRYDYWGQGTQVTVSS,high polyreactivity
2,QVQHVESGGGLVQAGGSLRLSCAASGRIFHYNAMGWYRQAPGKERELVAAITWIGGSTYADSVKGRFTISRDNAKNTVYLQMNSLKPEDTAVYYCNARYIYRFDYWGQGTQVTVSS,low polyreactivity
3,QVQHVESGGGLVQAGGSLRLSCAASGRIFNLYAMGWYRQAPGKERELVAAIRGRGTSTYYADSVKGRFTISSDNAKNTVFLQINSLKPEDTAVYYCAREGGYGPTLQDTSRYEYCGQGTQVTVSS,low polyreactivity
4,QVQHVESGGGLVQAGGSLRLSCAASGRIFPFNAMGCYRQAPGKETEFVAAIRLSGTRTYYADSVKGRFTISRDNAKNTVYLQMNCLNPEDTAVYYCAAKFSGHYYNYDYWGQGTQVTVSS,high polyreactivity
5,QVQHVESGGGLVQAGGSLRLSCAASGRIFSSNAMGWYRQAPGKERELVASITSGGNTNYADSVKGRFTISRDNAKNTVYLQMNSLKPEDTAVYYCAALSKTRCGYWGQGTQVTVSS,high polyreactivity
6,QVQHVESGGGLVQAGGSLRLSCAASGRIFSTNPMGWSRQAPGKERELVAAITTSGGITYYADSVKGRFTISRDNAKNTVYLQMNSLKPEDTGVYYCNTGYYGRLRDDYWGQGTQVTVSS,high polyreactivity
7,QVQHVESGGGLVQAGGSLRLSCAASGRIFTYYTMGWYRPAPGKEREFVAAISWSGTSTYYADSVKGRFRISRDNAKNTVYLQMKSLKPEDTAVYSCAARNWYSRYDYWGQGTQVTVSS,high polyreactivity
8,QVQHVESGGGLVQAGGSLRLSCAASGRIFYAYAMGWYRQAPGKQREMVAAITARGGSTYYADSVKGRFTISRDNAKNTVYLQINSLKPEDTAVYYCAKDTLLETGYEYWGQGTQVTVSS,high polyreactivity
9,QVQHVESGGGLVQAGGSLRLSCAASGRNFTYYAMGWYRQAPGKERELVAAISGGGITNYADSVKGRFTISRDNAKNTVYLQMNSLKPEDTAVYYCAADQRYRRAFRSRYGSWGQGTQVTVSS,low polyreactivity
10,QVQHVESGGGLVQAGGSLRLSCAASGRTFQYNTMGWYRQAPGKERELVAAISWGGGSTYYADSVKGRFTISRDNAKNTVYLQMNSLKPEDTAVYYCAATHYRGKGYYYWGQGTQLTVSS,low polyreactivity
11,QVQHVESGGGLVQAGGSLRLSCAASGRTFRANTMGWYRQAPGKERELVASIRGNGGTTYYADSVKGRFTISRDNAKNTVYLQMNSLKPEDTAVYYCAAGLYYIRWSRRYEYWGQGTQVTVSS,high polyreactivity
12,QVQHVESGGGLVQAGGSLRLSCAASGRTFVRYAMGWSRPAPGKERELVAAISRSGVGTYYADSVKGRFTISRDNAKKTVYLQMNSLKPEDTAVYYCNALPGTQYNYWGQGTQVTVSS,high polyreactivity
13,QVQHVESGGGLVQAGGSLRLSCAASGRTFYLNAMGWSRQAPGKARELVATISYTGDTTYYADSVKGRFTISRDNAKNTVYLQMNSLKPEDTAVYYCAKDYSLTQQRHAAYIVGSVDYWGQGTQVTVSS,high polyreactivity
14,QVQHVESGGGLVQAGGSLRLSCAASGRTFYNYAKGWYRQAPGKERELVAGITSCGGSTYYADSVKGRFTISRDNAKNTVYLQMNSLKPEDTAVYYCARVWPSQKHYYWGQGTQVTVSS,high polyreactivity
15,QVQHVESGGGLVQAGGSLRLSCAASGRTFYRYAMGWYRQAPGKERELVAAISGSGTSTSYADSVKGRFTISRDNAKNSVYLQMNSLKPEDTAVYYCAATYYVYYYSRYYFWGQGTQVTVSS,high polyreactivity
16,QVQHVESGGGLVQAGGSLRLSCAASGRTFYSYAMGWYRQAPGKDRELVAAITSDGGTYYADSVKGRFTISRDNAKNTVYLQMNSLKPDDTAVYYCNTRDLYGYPQVTGYDYWGQGTQVTVSS,low polyreactivity
17,QVQHVESGGGLVQAGGSLRLSCAASGRTLIYNAMGWYRQAPGKERELVAAITGGGGRTYYADSVKGRFTISRDNAKNTVYLQMNSLKPEDTAVYYCAVAGTVLSHMGYWGQGTQVTVSS,low polyreactivity
18,QVQHVESGGGLVQAGGSLRLSCAASGRTSIPYAMGRYRQAPGKEWQLVAAISYSVGRTYYADSVKGRFTISRDNAKNTVYLQMNSLKPEDTAVYYCAAEYNGVVRDYDYWGQGTQVTVSS,low polyreactivity
19,QVQHVESGGGLVQAGGSLRLSCAASGRTVYGYTMGWDRQAPGKERELVAAISYSGDSTYYADSVKGRFTISRDTAKNTVYFPMNSLKPEYTAVYYCAVRRYARFNYHYWGQGPQVTVSS,high polyreactivity
20,QVQHVESGGGLVQAGGSLRLSCAASGSIFEDYVMGWYRQAPGKERELVADITSGGTTYYADSVKGRFTISRDNAKNTVYLQMNSLKPEDTAVYYCAAEVDWVPFLLDYWGQGTQVTVSS,low polyreactivity
21,QVQHVESGGGLVQAGGSLRLSCAASGSIFGDNAMGWYRQAPGKERELVAAISSGGPTYADSVKGRFTISRDNAKNTVYLQMNSLKPEDTAVYYCNATDGITPYDLTDIEFDYWGQGTQVTVSS,low polyreactivity

row,Sequence,polyreactivity (PSR sort gate)
1,QVQHVESGGGLVQAGGSLRLSCAASGSIFPDNAMGWYRQAPGQERELVAAIDKGTGSTNYADSVTGRFTLSRDNAKNNVYFQMNSLKPEDTAVYYCAKGWLTPRGGAWYDDYWGQGTHVTVSS,low polyreactivity
2,QVQHVESGGGLVQAGGSLRLSCAASGSIFRRYDLGWSRQAPGKERELVAAISSSGGSTYYADSVKGRFTISRDNAKNTVYLQMNSLKPEDTAVYYCAADIYDDDRSESTEYDYWGQGTQVTVSS,low polyreactivity
3,QVQHVESGGGLVQAGGSLRLSCAASGSIFRWYAMGWYRQAPGKERELVAGITSGGSTNYADSVKGRFTISRDNAKNTVYLQMNSLKPEDTAVYYCNARRWVGSRYDYWGQGTQVTVSS,high polyreactivity
4,QVQHVESGGGLVQAGGSLRLSCAASGSIFSAYTMGWYRPAPGKERELVAAISSSGGRTYYADSVKGRFTISRDNAKNTVYLQMNSLKPEDTAVYYCAAGYWWALSSRGYGYWGQGTQVTVSS,high polyreactivity
5,QVQHVESGGGLVQAGGSLRLSCAASGSIFTGNAMGWYRQAPGKEREFVAAITNGGITNYADSVKGRFTISRDNAKNTVYLQMNSLKPEDTAVYYCAADYVDFYSFRRFDYWGQGTQVTVSS,low polyreactivity
6,QVQHVESGGGLVQAGGSLRLSCAASGSIFTVYAMGWYRQAPGKERELVAGITSGGNTNYADSVKGRFTISRDNAKNTVYLQMNSLKPEDTAVYYCAARIYGYVTYGYWGQGTQVTVSS,low polyreactivity
7,QVQHVESGGGLVQAGGSLRLSCAASGSIFVPYAMGWYRQAPGKERELVAAISSRGGRTYYADSVKGRFTISRDNAKNTVYLQMISLKPEDTAVYYCNKTAGSHIPRLEYWGQGTQVTVSS,low polyreactivity
8,QVQHVESGGGLVQAGGSLRLSCAASGSIFWDNAMGWYRQAPGKERELVAAITSSGDTTYYADSVKGRFTISRDNAKNTVYLQMNSLKPEDTAVYYCAKVFGPTDYLTGTFKGDYWGQGTQVTVSS,low polyreactivity
9,QVQHVESGGGLVQAGGSLRLSCAASGSIFWYYAMGWYRKAPVKERELVAAITSSGGRTYYADSVKGRFTISRDNAKNTVYLQMNSLKQEDTAVYYCAARQWWRYDYWGQGTQVTVSS,high polyreactivity
10,QVQHVESGGGLVQAGGSLRLSCAASGSNFGYVMGWYRQAPGKERELVAAISRSGGSTYYADSVKGRFTISRDNAKNTVYLQMNSLKPEDTAVYYCAARLYSSSYNSEQYYYWGQGTQVTVSS,high polyreactivity
11,QVQHVESGGGLVQAGGSLRLSCAASGSTFARYGLGWYRQAPGKERELVASLTYTGGRTYADSVKGRFTFSRDNAKNTVYLQMNSLKPEDTAVYYCAARYRLWGQGTQVTVSS,low polyreactivity
12,QVQHVESGGGLVQAGGSLRLSCAASGSTFDDNVMGWYRQAPGKERELVAAISSSGGSTYYADSVKGRFTISRDNAKNTVYLQMNSLKPEDTAVYYCNAVYFGLWGYYARRSYNYWGQGTQVTASS,low polyreactivity
13,QVQHVESGGGLVQAGGSLRLSCAASGSTFDYNAMGWYRQAPGKERELVAAISFIGGATDYADCVKGRFTISRDNAKNTVYLLMNSLKPEDSGVYYCAADTTSVKDGTFYSWGQGTQVTVSS,low polyreactivity
14,QVQHVESGGGLVQAGGSLRLSCAASGSTFGYNPMGSYRQAPGKERELTNYADSVKGRFTISRDNAKNTVYLQMNSLKPEDTAVYYCNAQIDFGDPEKRAWGYDYWGQGTQVTVSS,low polyreactivity
15,QVQHVESGGGLVQAGGSLRLSCAASGSTFPYYAMGWYRQAPGNERELVAAISNGVSTYYADSVKGRFTISRDNAKNTVYFHMNCLKQVDTAVYYCAGDFWITTRDIVKWWLYDYWGQGTQVTVSS,low polyreactivity
16,QVQHVESGGGLVQAGGSLRLSCAASGSTFVVYAMGWYRQAPGKERELVAAINWSGGSTYYADSVKGRFTISRDNAKNTVYLQMNSLKPEDTAVYYCSAYGVTYRGDYDYWGQGTQVTVSS,low polyreactivity
17,QVQHVESGGGLVQAGGSLRLSCAASGSTFYHNAMGWYRQAPGKERELVAAITSGTSTYYADSVKGRFTISRDNAKNTVYLHMNSLKPEDTAVYYCAADSPWGGGYFVLYNYWGQGTQVTVSS,low polyreactivity
18,QVQHVESGGGLVQAGGSLRLSCAASGSTFYRYAMGWYRQAPGNERELVAAISASGGSTYYADSVKGRFTISRDNAKNTVYLQMNSLKPEDTAVYYCNRDRRYRNDYWGQGTQVTVSS,high polyreactivity
19,QVQHVESGGGLVQAGGSLRLSCAASGTIFLYNAMGWYRQAPGKERELVAAIRGSDGITFYADSVKGRFTISRDNAKNTVYLQMNSLKPEDTAVYYCAKDTYRSPRHDYGYWGQGTQVTVSS,low polyreactivity
20,QVQHVESGGGLVQAGGSLRLSCAASGYTFCRYAMGWYRQAPGKERELVAAISQSGGRTYYADSVKGRFTISRDNAKNTVYFQMNSLKPDDTAVYYCATSSTQGDDYWGQGTQVTVSS,high polyreactivity
